# According to patent US20240318262A1 (TOHOKU UNIVERSITY, published 2024):
# B1: anti-human LILRB4 monoclonal antibody #10 (antibody, V domains shown)
# VH: EVMLVESGGGLVQPGGSRKLSCAASGFTFSSFGMHWVRQAPEKGLEWVAYISSGSSTIYYVDTVKGRFTISRDNPKNTLFLQMTSLRSEDTAMYYCARSTGTGAMDYWGQGTSVTVSS
# VL: DIQMTQTTSSLSASLGDRVTISCRASQDISNYLNWYQQKPDGTVKLLIYYTLRLYSGVPSRFSGSGSGTDYSLTISNLEQEDIATYFCQQGNTLPWTFGGGTKLEIK
# notes: In the reporter assay it was used as hybridoma culture supernatant; also called anti-LILRB4 monoclonal antibody
# Biological target: T1, human LILRB4 in TIL regions of lung squamous cell carcinoma tissue specimens (human, UniProt Q8NHJ6 24-258)
# T1 construct: Native LILRB4 on cells in patient tissue sections; also called immunosuppressive receptor LILRB4
# Assay: immunohistochemical staining of lung squamous cell carcinoma tissue specimens
# Procedure: Immunohistochemical staining was performed using the anti-human LILRB4 monoclonal antibody #10 obtained in Experimental Example 6, which inhibits binding between fibronectin and human LILRB4, on each of the lung squamous cell carcinoma tissue specimens whose LILRB4 expression was previously determined to be strongly positive (High), medium positive (Medium) or weakly positive (Low), with goat anti-human LILRB4 polyclonal antibodies (available from R & D Systems). The results are illustrated in FIG. 3.
binder,measurement,value
B1,binding result,binds
